From the RNAGym collection of RNA variant scans (doi:10.1021/acssynbio.7b00057)

B1: Pistol ribozyme (parent)
chain: GGGUCGUUGUUCCAUAAUCGCGUGGAUAUGGCACGCAAGUUUCUACCGGGCACCGUAAAUGUCCGACUGGAGCCGUUCGGGCGGCUAUAAACAGACCUCAGGCCCGAAGCGUGGCGGCACCUGCCGCCGGUGGUAAAAAAGAUCGGAAGAGCACACGUCU

Variants of: B1
Test: aptazyme ON/OFF ratio, guanine; higher = stronger switching; co-transcriptional cleavage with and without guanine

In order of falling “aptazyme ON/OFF ratio” value:
1. U7A U10C C12U  3.22
2. U7A U8G U11G C12U C13A  1.63
3. U7A U8G U11C C13A  1.51
4. U7A U10A U11A C12G C13G  1.46
5. U7A U10A U11G C12G  1.45
6. U7A U11C C12U  1.43
7. U7A U11G C12G C13G  1.42
8. U7A U8G U11G C12G C13U  1.42
9. U7A U10C C12G  1.42
10. U7A U10G C12U C13A  1.41
11. U7A U11A C12A  1.41
12. U7A U10A U11G C12A C13G  1.39
13. U7A U11C C12A  1.39
14. U7A U10C C12A  1.37
15. U7A U8G U11G C12G  1.36
16. U7A U11A C12U C13G  1.36
17. U7A U10G C12U C13U  1.36
18. U7A U8G U11C C13G  1.35
19. U7A U11C C12A C13A  1.35
20. U7A U10C C12G C13G  1.35
21. U7A U10G U11C C12G C13U  1.34
22. U7A U8G U11G C12A C13G  1.33
23. U7A U8G U11G C12G C13G  1.32
24. U7A U10A C12G C13A  1.31
25. U7A U10C U11G C12U C13G  1.31
26. U7A U8G U11G C12A  1.31
27. U7A U11A C12U C13U  1.31
28. U7A U10A C12A  1.31
29. U7A U10A U11G C13A  1.31
30. U7A U10A U11G C13G  1.3
31. U7A U10G U11A C12U C13A  1.29
32. U7A U8G U11G C12U  1.29
33. U7A U8G U11G C12U C13G  1.29
34. U7A U10C C12G C13A  1.29
35. U7C G9A U10A U11A C12A C13U  1.29
36. U7A U11C  1.29
37. U7A U10G U11A C12G C13U  1.28
38. U7A U10C C12G C13U  1.28
39. U7A U10G U11G C12G C13G  1.28
40. U7A U10G U11G  1.27
41. U7A U10A C12G C13U  1.27
42. U7A U10G U11G C13U  1.27
43. U7A U10C U11G C12U C13A  1.27
44. U7A U11A C12U C13A  1.26
45. U7A U10A U11A C12U C13G  1.26
46. U7A U11A C12U  1.26
47. U7A U10A C12G C13G  1.25
48. U7A U10A U11A C12G C13U  1.25
49. U7C G9A C12A C13U  1.25
50. U7A U11G C12A C13U  1.25
51. U7A U11G C12A C13G  1.25
52. U7C G9A U10A U11A C12U C13G  1.25
53. U7C G9A U10A C12U C13U  1.25
54. U7A U10C U11G C13A  1.24
55. U7C G9A C12A C13A  1.24
56. U7A U11A  1.24
57. U7A U10A U11A C12A C13A  1.23
58. U7A U11G C12G C13U  1.23
59. U7A U10C U11A C12A C13G  1.23
60. U7C G9A U10A U11A C12A C13G  1.23
61. U7C G9A U10A U11A C12G C13G  1.22
62. U7A U11C C12A C13G  1.22
63. U7A U10A U11A C12U C13U  1.22
64. U7A U10A C12G  1.22
65. U7A U8G U11G C12U C13U  1.22
66. U7A U10G U11G C12G C13U  1.22
67. U7A U10A U11A C12A C13U  1.21
68. U7A U10C U11A C12A C13A  1.21
69. U7A U8G U11G C12A C13U  1.21
70. U7A U10C U11G C13G  1.2
71. U7A U10C U11G C12U C13U  1.2
72. U7A U10G C12A C13U  1.2
73. U7A U10A U11A C12U  1.2
74. U7A U11A C12G  1.2
75. U7C G9A U10A U11A C12A C13A  1.2
76. U7C G9A U10A C12U C13G  1.2
77. U7C G9A U10A U11A C12G C13U  1.19
78. U7A U11C C12A C13U  1.19
79. U7C C12A C13U  1.19
80. U7A U10A U11G C13U  1.19
81. U7C G9A U10A U11A C12U C13U  1.19
82. U7A U10A U11A C13A  1.19
83. U7A U10A U11A C12G  1.18
84. U7A U8G U11G C12A C13A  1.18
85. U7C G9A U10A U11A C12U C13A  1.18
86. U7C G9A U10A U11A C12G C13A  1.17
87. U7C G9A C13U  1.17
88. U7A U10C U11G C13U  1.17
89. U7A U10A U11C C12G C13G  1.17
90. U7A U10A U11G C12A C13U  1.17
91. U7A U10A U11G C12A C13A  1.17
92. U7A U10G U11A C12G C13G  1.17
93. U7C G9A U10A C12A C13A  1.17
94. U7A U11G  1.17
95. U7C G9A C12U  1.16
96. U7A U10G U11G C13G  1.16
97. U7A U10C U11C C12A C13G  1.16
98. U7A U10G C12A C13A  1.16
99. U7C C12A C13A  1.16
100. U7A U10A U11G C12G C13U  1.16
101. U7A U10C U11A C13U  1.16
102. U7A U10A U11A C13U  1.16
103. U7A U11A C13G  1.16
104. U7C G9A U10A C12U C13A  1.16
105. U7A U10A U11G C12U  1.15
106. U7A U10A U11A C12U C13A  1.15
107. U7A U11G C12A C13A  1.15
108. U7A U8G U11G C12G C13A  1.15
109. U7A U10C U11A C13A  1.15
110. U7A U10A U11A C13G  1.15
111. U7C G9A C12G  1.14
112. U7A U10A U11A C12A C13G  1.14
113. U7C G9A U10A C12A C13G  1.14
114. U7A U10G U11A C12U C13G  1.13
115. U7A U10A U11G C12A  1.13
116. U7A U11G C12G C13A  1.13
117. U7A U10G U11C C12G C13A  1.13
118. U7A U11A C13U  1.13
119. U7A U11A C13A  1.13
120. U7A U10G U11G C13A  1.12
121. U7A U10G C12U C13G  1.12
122. U7A U8G U11C C13U  1.11
123. U7A U10A U11C C12A C13U  1.11
124. U7A U10A U11A C12A  1.11
125. U7C G9A C12A C13G  1.11
126. U7A U10A U11G C12G C13G  1.11
127. U7A U10G U11C C12G C13G  1.11
128. U7A U10C U11A C12A C13U  1.11
129. U7A U10G U11G C12G C13A  1.11
130. U7A U10G U11A C13A  1.11
131. U7A U10A U11C C12G C13U  1.1
132. U7A U10A U11C C12A C13A  1.1
133. U7A U10C U11C C12A C13U  1.1
134. U7C C12A C13G  1.1
135. U7A U10A C12U  1.1
136. U7A U10C U11C C12G C13G  1.09
137. U7A U10G C12A C13G  1.09
138. U7A U10C U11A C13G  1.09
139. U7A U10G U11A C13G  1.09
140. U7A U10A U11C C12G C13A  1.08
141. U7A U10G U11C C13G  1.08
142. U7A U10G U11A C12G C13A  1.08
143. U7A U10C U11C C12U C13G  1.08
144. U7A U11C C12G  1.08
145. U7A U10G U11A C12U C13U  1.07
146. U7A U10G U11C C13A  1.07
147. U7A U10A U11A C12G C13A  1.07
148. U7A U10C U11C C12U C13U  1.07
149. U7A U10A U11C C12U C13A  1.07
150. U7A U10A U11C C12U C13G  1.07
151. U7A U10G U11A  1.06
152. U7A U10C U11C C12A C13A  1.06
153. U7A U10C U11C C12G C13U  1.06
154. U7A U10A U11G C12G C13A  1.06
155. U7A U10G U11A C13U  1.06
156. U7C G9A C13A  1.05
157. U7A U10G U11C C13U  1.05
158. U7C G9A U10A C12A C13U  1.05
159. U7A U11G C13G  1.05
160. U7A U10G U11C  1.04
161. U7A U10C U11C C12G C13A  1.04
162. U7A U10A U11C C12U C13U  1.04
163. U7A U11G C13U  1.04
164. U7C G9A C13G  1.03
165. U7A U10A U11C C12A C13G  1.03
166. U7A U10C U11C C12U C13A  1.03
167. U7A U11G C13A  1.03
